In patent US6248712:

Tests used:
[1] = target: human single-chain pro-u-PA (human) (UniProt P00749)
[2] = target: u-PA bound to u-PAR on the cell surface (human) (UniProt P00749); assay: association rate constant from inhibition kinetics of plasminogen activation by u-PAR-bound u-PA on U937 cells
[3] = target: u-PA bound to u-PAR on the cell surface (human) (UniProt P00749); assay: inhibition kinetics, u-PAR-bound u-PA on U937 cells against u-PA in solution
[4] = target: u-PA bound to u-PAR on the cell surface (human) (UniProt P00749); assay: association rate constant from inhibition kinetics of plasminogen activation by u-PAR-bound u-PA on PMA-stimulated U937 cells
[5] = target: u-PA bound to u-PAR on the cell surface (human) (UniProt P00749); assay: inhibition kinetics, u-PAR-bound u-PA on PMA-stimulated U937 cells against u-PA in solution
[6] = target: human urokinase-type plasminogen activator, active two-chain 54 kD form (human) (UniProt P00749)
[7] = target: u-PA bound to u-PAR on the cell surface (human) (UniProt P00749)

Chain of plasminogen activator inhibitor type 2 (P05120 whole entry): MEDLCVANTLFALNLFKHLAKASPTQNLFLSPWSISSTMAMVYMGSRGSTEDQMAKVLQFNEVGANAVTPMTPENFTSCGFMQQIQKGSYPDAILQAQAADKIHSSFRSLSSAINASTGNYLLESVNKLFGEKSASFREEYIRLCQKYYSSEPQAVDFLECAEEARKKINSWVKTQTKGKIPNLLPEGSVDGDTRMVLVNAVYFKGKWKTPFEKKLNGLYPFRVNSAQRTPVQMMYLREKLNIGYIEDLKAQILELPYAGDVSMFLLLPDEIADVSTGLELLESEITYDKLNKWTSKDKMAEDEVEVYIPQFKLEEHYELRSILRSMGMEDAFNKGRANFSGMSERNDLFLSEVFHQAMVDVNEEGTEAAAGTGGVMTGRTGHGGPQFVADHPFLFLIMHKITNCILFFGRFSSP
Chain of human plasmin (P00747 97-810 limits assumed): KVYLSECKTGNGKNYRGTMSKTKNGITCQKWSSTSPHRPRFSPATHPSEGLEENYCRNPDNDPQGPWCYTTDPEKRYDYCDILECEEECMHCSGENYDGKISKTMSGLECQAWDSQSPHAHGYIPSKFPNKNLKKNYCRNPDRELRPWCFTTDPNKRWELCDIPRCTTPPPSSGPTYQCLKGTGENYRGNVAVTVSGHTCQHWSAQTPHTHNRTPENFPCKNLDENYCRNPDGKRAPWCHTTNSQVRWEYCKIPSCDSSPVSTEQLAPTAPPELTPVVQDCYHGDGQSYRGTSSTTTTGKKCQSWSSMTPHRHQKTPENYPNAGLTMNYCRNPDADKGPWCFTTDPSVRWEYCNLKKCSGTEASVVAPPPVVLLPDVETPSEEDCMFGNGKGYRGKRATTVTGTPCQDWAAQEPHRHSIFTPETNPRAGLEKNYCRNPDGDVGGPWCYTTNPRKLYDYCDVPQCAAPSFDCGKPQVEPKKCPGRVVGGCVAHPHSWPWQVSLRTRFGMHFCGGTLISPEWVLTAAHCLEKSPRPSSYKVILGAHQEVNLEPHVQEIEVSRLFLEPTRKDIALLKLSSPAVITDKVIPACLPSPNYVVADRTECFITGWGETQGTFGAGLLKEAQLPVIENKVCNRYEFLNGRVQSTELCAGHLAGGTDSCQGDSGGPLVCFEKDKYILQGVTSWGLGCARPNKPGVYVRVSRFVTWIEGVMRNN

| generation of u-PA amidolytic activity from pro-u-PA (ng/ml equivalent two-chain u-PA per min) [1] | kon [2] [M⁻¹ s⁻¹] | rate of inhibition relative to u-PA in solution [3] [%] | kon [4] [M⁻¹ s⁻¹] | rate of inhibition relative to u-PA in solution [5] [%] | Bound plasmin activity (%) at 3 h and 17 h; u-PA activity in medium (%) [6] [%] | association-rate constant relative to u-PA in solution [3] [%] | Bound plasmin activity (%) after preincubation of the cells and washing [7] [%] | Substance |
| --- | --- | --- | --- | --- | --- | --- | --- | --- |
| 0.6 | – | – | – | – | – | – | – | human plasmin (from UniProt P00747) (enzyme) |
| – | 4.5e+06 | 60 | 1.7e+06 | 20 | – | – | – | plasminogen activator inhibitor type 1 (from UniProt P05121) |
| – | 330000 | – | 110000 | – | 48 | 60 | 54 | plasminogen activator inhibitor type 2 (from UniProt P05120) |
